Assay results as given in publication PMC6006248, “CARK1 mediates ABA signaling by phosphorylation of ABA receptors” (Cell Discovery, 2018).

T1: His-tagged CARK1-KD (kinase domain of CARK1, residues 50-353) (Arabidopsis, UniProt Q9LUT0 50-353)
T1 construct: CARK1 (At3g17410), Arabidopsis, kinase domain, residues 50-353; Cloned into pET28a for the pull-down; details of the purification are in the Supplementary Information; source: E. coli Rosetta (DE3), purified
T1 sequence (looked up): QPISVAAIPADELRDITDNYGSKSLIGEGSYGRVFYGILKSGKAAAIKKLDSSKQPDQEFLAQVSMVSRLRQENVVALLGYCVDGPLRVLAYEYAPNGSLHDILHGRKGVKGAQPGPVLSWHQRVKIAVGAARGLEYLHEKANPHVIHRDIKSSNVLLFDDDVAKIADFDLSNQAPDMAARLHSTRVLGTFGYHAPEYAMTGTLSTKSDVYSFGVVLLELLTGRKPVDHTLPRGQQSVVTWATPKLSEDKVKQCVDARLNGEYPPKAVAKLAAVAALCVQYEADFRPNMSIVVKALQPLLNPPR

T2: ABI1 (Clade A PP2C) (Arabidopsis, UniProt P49597 1-434)
T2 construct: Protein phosphatase 2C ABI1, Arabidopsis; source: purified with the similar procedures as described for CARK1-KD
T2 sequence (looked up): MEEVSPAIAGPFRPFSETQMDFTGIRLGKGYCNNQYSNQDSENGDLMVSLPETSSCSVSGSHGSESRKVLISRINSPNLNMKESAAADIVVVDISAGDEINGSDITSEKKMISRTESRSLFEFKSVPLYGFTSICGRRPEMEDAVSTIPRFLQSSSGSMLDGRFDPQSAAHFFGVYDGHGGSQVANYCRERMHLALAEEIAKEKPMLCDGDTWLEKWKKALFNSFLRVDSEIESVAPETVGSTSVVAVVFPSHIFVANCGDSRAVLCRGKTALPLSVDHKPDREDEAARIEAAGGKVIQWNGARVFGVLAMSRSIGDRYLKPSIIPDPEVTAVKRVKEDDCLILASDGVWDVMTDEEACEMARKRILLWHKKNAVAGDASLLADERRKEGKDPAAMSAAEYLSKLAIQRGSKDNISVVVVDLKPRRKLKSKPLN

T3: RCAR3^S85R (interface point mutant) (Arabidopsis, UniProt Q9FGM1 1-188, S85R)
T3 sequence: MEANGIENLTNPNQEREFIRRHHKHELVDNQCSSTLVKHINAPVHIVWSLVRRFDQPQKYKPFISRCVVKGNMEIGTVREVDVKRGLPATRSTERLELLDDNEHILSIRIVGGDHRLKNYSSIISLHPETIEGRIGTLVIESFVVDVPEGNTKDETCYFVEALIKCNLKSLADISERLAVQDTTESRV

T4: RCAR3^T77A (Arabidopsis, UniProt Q9FGM1 1-188, T77A)
T4 sequence: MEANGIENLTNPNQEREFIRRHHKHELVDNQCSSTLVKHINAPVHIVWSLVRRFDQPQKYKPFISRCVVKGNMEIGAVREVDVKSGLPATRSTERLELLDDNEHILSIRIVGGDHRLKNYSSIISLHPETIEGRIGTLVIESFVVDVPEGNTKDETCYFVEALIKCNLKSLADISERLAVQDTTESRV

T5: RCAR3^T77D (phosphor-mimic form of RCAR3) (Arabidopsis, UniProt Q9FGM1 1-188, T77D)
T5 sequence: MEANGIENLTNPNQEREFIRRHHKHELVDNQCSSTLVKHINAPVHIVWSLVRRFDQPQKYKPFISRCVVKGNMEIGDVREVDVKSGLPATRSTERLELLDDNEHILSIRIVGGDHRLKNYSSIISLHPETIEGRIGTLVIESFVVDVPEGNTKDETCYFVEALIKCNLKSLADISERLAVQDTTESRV


Key:
[1] = target: T1, His-tagged CARK1-KD (kinase domain of …); experiment: pull-down; GST pull-down; His-tagged CARK1-KD or CARK1-KD^N204A (50, 100 and 200 μg) incubated with 100 μg of GST-tagged RCAR3 or RCAR11; SDS-PAGE and immunoblot; conditions: both partners purified
ABI1 (Clade A PP2C) = target: T2, ABI1 (Clade A PP2C); experiment: SPR; in vitro; who was immobilised and the conditions are not told in the main text (Supplementary Fig. S7A-E); conditions: both partners purified
[2] = target: T3, RCAR3^S85R (interface point mutant); experiment: SPR
RCAR3^T77A = target: T4, RCAR3^T77A; experiment: SPR
[3] = target: T5, RCAR3^T77D (phosphor-mimic form of …); experiment: SPR

Binder	binding result [1]	Kd (ABI1 (Clade A PP2C))	also measured
RCAR3^T77D (phosphor-mimic form of RCAR3) (receptor, Arabidopsis, UniProt Q9FGM1 1-188, looked up, ABA receptor RCAR3 (PYL8), Arabidopsis, with T77D; source: purified with the similar procedures as described for CARK1-KD) MEANGIENLTNPNQEREFIRRHHKHELVDNQCSSTLVKHINAPVHIVWSLVRRFDQPQKYKPFISRCVVKGNMEIGDVREVDVKSGLPATRSTERLELLDDNEHILSIRIVGGDHRLKNYSSIISLHPETIEGRIGTLVIESFVVDVPEGNTKDETCYFVEALIKCNLKSLADISERLAVQDTTESRV	–	~0.2 µM	–
RCAR3^S85R (interface point mutant) (receptor, Arabidopsis, UniProt Q9FGM1 1-188, looked up, ABA receptor RCAR3 (PYL8), Arabidopsis, with S85R; source: purified with the similar procedures as described for CARK1-KD) MEANGIENLTNPNQEREFIRRHHKHELVDNQCSSTLVKHINAPVHIVWSLVRRFDQPQKYKPFISRCVVKGNMEIGTVREVDVKRGLPATRSTERLELLDDNEHILSIRIVGGDHRLKNYSSIISLHPETIEGRIGTLVIESFVVDVPEGNTKDETCYFVEALIKCNLKSLADISERLAVQDTTESRV	–	11.3 µM	–
ABI1 (Clade A PP2C) (enzyme) MEEVSPAIAGPFRPFSETQMDFTGIRLGKGYCNNQYSNQDSENGDLMVSLPETSSCSVSGSHGSESRKVLISRINSPNLNMKESAAADIVVVDISAGDEINGSDITSEKKMISRTESRSLFEFKSVPLYGFTSICGRRPEMEDAVSTIPRFLQSSSGSMLDGRFDPQSAAHFFGVYDGHGGSQVANYCRERMHLALAEEIAKEKPMLCDGDTWLEKWKKALFNSFLRVDSEIESVAPETVGSTSVVAVVFPSHIFVANCGDSRAVLCRGKTALPLSVDHKPDREDEAARIEAAGGKVIQWNGARVFGVLAMSRSIGDRYLKPSIIPDPEVTAVKRVKEDDCLILASDGVWDVMTDEEACEMARKRILLWHKKNAVAGDASLLADERRKEGKDPAAMSAAEYLSKLAIQRGSKDNISVVVVDLKPRRKLKSKPLN	–	–	koff [2]: 0.00676 s⁻¹; koff (RCAR3^T77A): 0.0046 s⁻¹; koff [3]: 0.000867 s⁻¹

Second part, led by results:

binding result [1]	Kd (ABI1 (Clade A PP2C))	Binder	also measured
binds	–	GST-tagged RCAR3 (receptor, Arabidopsis, UniProt Q9FGM1 1-188, looked up, ABA receptor RCAR3 (PYL8), Arabidopsis, cDNA cloned into pGEX-6P-1; Details are in the Supplementary Information; also called PYL8; source: E. coli, purified (similar procedures as for CARK1-KD)) MEANGIENLTNPNQEREFIRRHHKHELVDNQCSSTLVKHINAPVHIVWSLVRRFDQPQKYKPFISRCVVKGNMEIGTVREVDVKSGLPATRSTERLELLDDNEHILSIRIVGGDHRLKNYSSIISLHPETIEGRIGTLVIESFVVDVPEGNTKDETCYFVEALIKCNLKSLADISERLAVQDTTESRV	–
binds	–	GST-tagged RCAR11 (receptor, Arabidopsis, UniProt O49686 1-191, looked up, ABA receptor RCAR11 (PYR1), Arabidopsis, cDNA cloned into pGEX-6P-1; Details are in the Supplementary Information; also called PYR1; source: E. coli, purified (similar procedures as for CARK1-KD)) MPSELTPEERSELKNSIAEFHTYQLDPGSCSSLHAQRIHAPPELVWSIVRRFDKPQTYKHFIKSCSVEQNFEMRVGCTRDVIVISGLPANTSTERLDILDDERRVTGFSIIGGEHRLTNYKSVTTVHRFEKENRIWTVVLESYVVDMPEGNSEDDTRMFADTVVKLNLQKLATVAEAMARNSGDGSGSQVT	–
